Test results published in the nanobody polyreactivity screen of Harvey et al. (2022).

Assay: yeast display, Sf9 membrane polyspecificity reagent, FACS + sequencing; frameworks hold sequencing errors
Method in brief: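 Galactose induction of a Saccharomyces cerevisiae BJ5465 synthetic nanobody display library ran 36–48 hours. The cells were then stained for 1 hour at 4 °C with 10% biotinylated, detergent-solubilized Sf9 membrane reagent, pulled down on streptavidin microbeads and FACS-sorted into low and high (top ~1%) gates on expression and reagent-binding fluorescence. Labels for polyreactivity follow the gate of origin.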

Sequence	polyreactivity (PSR sort gate)
QVQLVESGGGVVQAGGSLRLSCAASGFTFAQYAMGWYRQAPGKERELVATITRGGITYYADSVKGRFTISRDNAKNTVYLQMNSLKPEDTAVYYCAARVVPPYSRRDDYWGQGTQVTVSS	high polyreactivity
QVQLVESGGGVVQAGGSLRLSCAASGFTFVYNAMGWYRQAPGKEREFVAAISGRGGSTYYADSVKGRFTISRDNAKNTVYLQMNSLKPEDTAVYYCATTYSWYYVPYKTHIYYYWGQGTQVTVSS	low polyreactivity
QVQLVESGGGVVQAGGSLRLSCAASGITFSRYAMGWYRQAPGKERELVAAISGSGGRTYYADSVKGRFTISRDNAKNTVYLQMNSLKPEDTAVYYCARESSYYKYYYWGQGTQVTVSS	high polyreactivity
QVQLVESGGGVVQAGGSLRLSCAASGNIFAVYAMGWYREAPGKERELVAAIRKSGATTYYADSVKGRFTISRDNAKNTVYLQIHSLKPEDTAVYYCAARTFKDAGTAYGSWGQGTQVTVSS	high polyreactivity
QVQLVESGGGVVQAGGSLRLSCAASGRIIPYYAMGWYRPAPGTERELVAAISWTDGTTFYADSVKGRFTISRDNAKNTVYLQMNSLKPEDTAVYYCAASVYQDKGYDYWGQGTQVTVSS	low polyreactivity
QVQLVESGGGVVQAGGSLRLSCAASGRISDVYVMGWYRQAPGKERELVAAITWSGGDTYYADSVKGRFTISRDNAKNTVYLQMNSLKPEDTAVYYCNADTGKWGGNGWYEFDYWGQGTQVTVSS	low polyreactivity
QVQLVESGGGVVQAGGSLRLSCAASGRTFPYNPMGWYRQAPGKERELVAAISGRGGSTYYADSVKGRFTISRDNAKNTVYLQMNSLKPEVSAVYYCDARLPWSYYRTQGYNYWGQGTQVTVSS	high polyreactivity
QVQLVESGGGVVQAGGSLRLSCAASGRTSYWYAKGCYRQAPGKERELVADISWSGGSTYYADSVKGRFTISRDNAKNTVYLQMNSMKPEDTAVYYCNAAEQKYSIYYAFDTGPYDYWGQGTQVTVSS	low polyreactivity
QVQLVESGGGVVQAGGSLRLSCAASGSIFAGNAMGGSRQAPGKERELVAAITFSAGRTSYADSVKGRFTISRDNAKNTVYFQMNSLKPEDTAVYYCNALLTVRHVKSDYDYWGQGTQVTVSS	low polyreactivity
QVQLVESGGGVVQAGGSLRLSCAASGSIFRQNTMGWYRQAPGKERELVAAISSGGSTYYADSVKGRFTISRDNAKNTVYLQMNSPKPEDTAVYYCAAYHSFVWGDDYWGQGTQVTVSS	low polyreactivity
QVQLVESGGGVVQAGGSLRLSCAASGSILNNYAMGWYRPAPGKERELVAAISSSGGTNYADSVKGRFTISRDNAKNTVFLQMNSLKPEDTAVYYCNADVLDGGYVYWGQGTQVTVSS	low polyreactivity
QVQLVESGGGVVQAGGSLRLSCAASGSIYSQYAMGWYRQAPGTERELVASISRRGGRTYYADSVKGRFTISRDNAKNTVYLQMNSLKPEETAVYYCAALDTAGPYNTLDIYDHWGQGTQVTVSS	high polyreactivity
QVQLVESGGGVVQAGGSLRLSCAASGSTFGHNAMGWYRQAPGKERELVAVITSGGSTYYADSVKGRFTISRDNAKNTVYLQMNSLKPEDTAVYFCATDGGNSATVRYVASDYWGQGTQVTVSS	high polyreactivity
QVQLVESGGGVVQAGGSLRLSCAASGSTFHYYAMGWYRQAHGKERELVAAISYSSGSTYYADSVKGRVTISRDNAKNHVYLQMISLKPEDTAVYYCATESYSYYIHTTYYYWGQGTQVTLSS	low polyreactivity
QVQLVESGGGVVQAGGSLRLSCAASGSTFYLYDMGWYRQEPGKERELVATITSGTSTTYADSVKGRYTISRDNAKNTVYLQMNSLKPEDTAVYYCNATDVGIITVGYGHGGYYWGQGTQVTVSS	low polyreactivity
QVQLVESGGGVVQAGGSLRLSCAASGSTLARYAMGWYRQSPGKERELVAAISSDGRTYYADSVKGRFTISRDNAKNTVYLQMNSLKPEDTAVYYCSAVGKPGVYQEGDYWGQGTQVTVSS	high polyreactivity

Sequence	polyreactivity (PSR sort gate)
QVQLVESGGGVVQAGGSLRLSCAASGYIFFANAMGWYRQAPGKERELVAAISSDGRTYYADSVKGRFTISRDNANNTVYLQMNSLKPEDTAVYYSADYFSGLTYGYYVAGYDYWGQGTQVTVSS	low polyreactivity
QVQLVESGGGVVQAGGSLRLSCAATGRIFGVYAMGWYRQAPGKERELVAAISSTGGSTYYADSVKGRFTISRDNAKNTVYLQMNSLKPEDTAVYYCEYDYWGQGSQVTVSS	low polyreactivity
QVQLVESGGGVVQAGGSLRLSCAGSGFTFPSYAMGWYRQAPGKERELVAAISVGGGSTYYADSVKGRFTISRDKAKNTVYLQMNSLKPEDTAVYYCNADYWYWVWLVGGNVDLDYWGQGTQVTVSS	high polyreactivity
QVQLVESGGGVVQAGGSLRLSCAGSGRTFPYYAVGWYRQAPGKERELVAVISSADSTNYADSVKGRFTISRDNAKNTVYLQMNSLKPEDTAVYYCADDAVYYGDDYWGQGTQVTVSS	low polyreactivity
QVQLVESGGGVVQAGGSLRLSSAASGRIIRYYTMGWYRQAPGKERELVAAIRTYGGRTYYADSVKGRFTISRDNAKNSVYLQMNSLKPEDTAVYYCAADGGRPRYDSWGQGTQVTVSS	high polyreactivity
QVQLVESGGGVVQAGGSLRLTCAASGRTCPIYAMGWYRQAPGKERELVATITWNDGNTYYADSVKGRFTISRDNAKNTVYLQMNCLKPEDTAVYYCAAKGGWPWHYHYQKNSEYDYWGQGTQVTVSS	low polyreactivity
QVQLVESGGGVVQAGGSLRLTCAASVSIFASNAMGWYRQAPGKEREFVAAITWRTDRTYYADSVKGRFTISRDNAKNTVYLQMNSLKPEDTAVYYCAADLLPLYDYWGQGTQVTVSS	high polyreactivity
QVQLVESGGGVVQAGGTLRLSCAASGINFIDNTMGWYRQAPGKEREFVATISANSDGTYYADSVKRRFTISRDNAKKTVYLQMNSLKPEETAVYYWGQGTQVTVSS	low polyreactivity
QVQLVESGGGVVQAGRSLRLSCAASGSTFQPYAMGSYRQAPGKEREFVATISGSAGSTYYADSVKGSFKISRDNAKNTVYLQMTSLKPEDTAVYYCNADSGWFGYDYWGQGTQVTVSS	low polyreactivity
QVQLVESGGGYVQAGGSLRLSCAASGSTFRYYAMGWYRQAPGKEREFVASITQSGGSTYYADSVMGRFTISRDNAKNTVYLQMISLKPEDTAVYYCAADVYSWVYLMDYWGQGTQVTVSS	low polyreactivity
QVQLVESGGLLVQAGGSIRLRCDASGIILRGYSLGWYRQAPGKERELVASISRGGSTNYADSVKGRFTISRDNAKTTVYLQMNSLKPEDTAVYSCNARGCNGRSDYDYWGLGTQVTVSS	high polyreactivity
QVQLVESGGLLVQAGGSLRLSCAASGRIFTHNATGWYRQAPGKERELVAAISYSGVSTYYADSVKGRFTISRDNAKNTVYLQMNSLKPEDTAVYYCARRYWYPDAFYRYDYWGQGTQVTVSS	low polyreactivity
QVQLVESGGLLVQGGGILRLSCAASGRILQGYAMGWSRQAPGKERELVDAISSGGRTYYADSVKGRFTISRDNAKNNYYLQMNSLNPDDTAVYYCAAGECWRIHAYSDDFWVQGTQVTVSS	high polyreactivity
QVQLVESGGRLDQAGGSLRLSCAASASTFKEYPMGWYRQAPGKERELVAAISKSGDSTYYADSVKGRFTISRDNAKNTVYLQMNSLKPEDTAVYYCAADTFSFRWSDYWGLGTQVTVSS	low polyreactivity
QVQLVESGGRLFQAGGSLRLSCAASGRTWGYEMGWYRQATGKERELVAAIRNGASTYYADSVKGRFTISRDNAKKTVYFHMNSRKPEDTAVYYCDADYTVRVVATYDYWGQGTQVTVSS	low polyreactivity
QVQLVESGGRLGQAGGSLRISCAASGGTFWYYDMGWYRQAPGKERELVAAISSGGNTYYADSVKGRFTISRDNAKITVYLQMNSLKPEDTAVYYCAALPKYGSYYYYPPFDYDYWGQGTQVTVSS	low polyreactivity
